According to US20120220489A1:

Columns and labels:
[1] = target: pErk1/2-BSA 2.7x peptide-protein conjugate (human; bovine); assay: RPA standard curve, assay 1, LOD back-calculated from one-site fit
[2] = target: ERK1 (p44) active (GST tagged), human, Invitrogen PV 3311 (human) (UniProt P27361); assay: RPA standard curves
[3] = target: ERK1 (p44) inactive (GST tagged), human, Invitrogen PV 3312 (human) (UniProt P27361); assay: RPA standard curves
[4] = target: ERK1 (p44), human, Cell Signaling Technology 7416 (human) (UniProt P27361); assay: RPA standard curves
[5] = target: ERK1 (p42) active (phospho), human, Active Motif 31 152 (human) (UniProt P27361); assay: RPA standard curves
[6] = target: Histone H3-BSA 2.7x peptide-protein conjugate (bovine); assay: RPA, competition: +free pErk1/2 peptide 1000 nM
Histone H3-BSA 2.7x peptide-protein conjugate (bovine), sequence (P02769 25-607 limits assumed): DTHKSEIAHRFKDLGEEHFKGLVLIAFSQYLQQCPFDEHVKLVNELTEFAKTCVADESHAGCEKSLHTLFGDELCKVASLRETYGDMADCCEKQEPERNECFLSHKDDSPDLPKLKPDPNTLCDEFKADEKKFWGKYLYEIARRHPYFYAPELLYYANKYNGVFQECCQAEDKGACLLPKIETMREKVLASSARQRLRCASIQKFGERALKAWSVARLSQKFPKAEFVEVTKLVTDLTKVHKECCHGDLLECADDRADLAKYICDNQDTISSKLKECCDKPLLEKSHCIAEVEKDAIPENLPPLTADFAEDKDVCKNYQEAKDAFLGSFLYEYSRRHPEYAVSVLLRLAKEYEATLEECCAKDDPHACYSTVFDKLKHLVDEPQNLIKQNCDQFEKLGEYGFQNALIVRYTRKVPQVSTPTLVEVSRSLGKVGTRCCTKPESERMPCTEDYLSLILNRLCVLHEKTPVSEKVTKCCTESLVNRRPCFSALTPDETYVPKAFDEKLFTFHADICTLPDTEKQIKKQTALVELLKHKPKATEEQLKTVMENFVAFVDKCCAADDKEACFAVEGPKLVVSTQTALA

[7] = target: ERK1 (p44) active (GST tagged), human, Invitrogen PV 3311 (human) (UniProt P27361); assay: RPA, competition: +free pErk1/2 peptide 1000 nM
[8] = target: ERK2 (p42), human, Biosource PHO 0104 (human) (UniProt P28482); assay: RPA, competition: +free pErk1/2 peptide 1000 nM
UniProt P28482, sequence (P28482 2-360 limits assumed): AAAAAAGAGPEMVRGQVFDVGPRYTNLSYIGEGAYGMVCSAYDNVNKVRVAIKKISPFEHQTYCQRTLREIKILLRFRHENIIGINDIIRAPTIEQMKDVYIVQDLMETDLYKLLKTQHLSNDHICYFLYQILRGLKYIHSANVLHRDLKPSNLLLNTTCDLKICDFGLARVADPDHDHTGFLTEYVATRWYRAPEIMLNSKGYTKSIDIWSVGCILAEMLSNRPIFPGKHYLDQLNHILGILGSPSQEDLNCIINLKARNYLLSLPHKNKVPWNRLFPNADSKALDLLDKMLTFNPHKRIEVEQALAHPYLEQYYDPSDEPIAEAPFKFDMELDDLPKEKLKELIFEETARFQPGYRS

[9] = target: pRb recombinant protein, human, Active Motif 31 128 (human) (UniProt P06400); assay: RPA, competition: +free pErk1/2 peptide 1000 nM
UniProt P06400, sequence (P06400 whole entry): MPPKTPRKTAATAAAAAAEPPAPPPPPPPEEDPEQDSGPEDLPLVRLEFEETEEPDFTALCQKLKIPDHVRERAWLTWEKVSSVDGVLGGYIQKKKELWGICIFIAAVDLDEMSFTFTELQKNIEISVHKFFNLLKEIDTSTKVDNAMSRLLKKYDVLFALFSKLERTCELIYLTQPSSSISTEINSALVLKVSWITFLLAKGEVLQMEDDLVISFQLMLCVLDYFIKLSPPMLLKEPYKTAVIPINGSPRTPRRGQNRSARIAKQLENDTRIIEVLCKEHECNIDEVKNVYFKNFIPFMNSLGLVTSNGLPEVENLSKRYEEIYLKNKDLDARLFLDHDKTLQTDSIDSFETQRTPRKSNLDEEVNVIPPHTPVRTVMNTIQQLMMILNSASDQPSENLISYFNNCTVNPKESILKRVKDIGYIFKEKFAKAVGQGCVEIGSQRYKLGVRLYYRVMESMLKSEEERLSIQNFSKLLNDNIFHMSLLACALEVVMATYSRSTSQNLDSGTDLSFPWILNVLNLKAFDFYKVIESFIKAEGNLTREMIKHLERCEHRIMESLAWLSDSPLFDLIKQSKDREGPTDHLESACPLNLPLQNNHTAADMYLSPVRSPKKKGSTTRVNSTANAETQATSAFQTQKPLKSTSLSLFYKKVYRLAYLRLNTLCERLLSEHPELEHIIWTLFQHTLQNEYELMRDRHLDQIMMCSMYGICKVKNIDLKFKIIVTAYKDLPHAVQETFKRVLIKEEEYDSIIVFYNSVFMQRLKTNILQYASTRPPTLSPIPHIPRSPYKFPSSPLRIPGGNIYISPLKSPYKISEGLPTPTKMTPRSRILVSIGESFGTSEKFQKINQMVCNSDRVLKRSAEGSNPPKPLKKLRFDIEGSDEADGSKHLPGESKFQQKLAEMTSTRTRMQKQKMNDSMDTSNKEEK

[10] = target: Histone H3 recombinant protein, calf, Roche 11 034 758 001 (calf) (UniProt P68432); assay: RPA, competition: +free pErk1/2 peptide 1000 nM
[11] = target: Erk1-BSA 2.7x peptide-protein conjugate (human; bovine); assay: RPA, competition: +free pErk1/2 peptide 1000 nM
Erk1-BSA 2.7x peptide-protein conjugate (human; bovine), sequence (peptide, as listed by the source limits assumed, chain 1 of 2): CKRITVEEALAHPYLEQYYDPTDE
Erk1-BSA 2.7x peptide-protein conjugate (human; bovine), sequence (P02769 25-607 limits assumed, chain 2 of 2): as the sequence (P02769 25-607 limits assumed) above

[12] = target: ERK1 (p42) active (phospho), human, Active Motif 31 152 (human) (UniProt P27361); assay: RPA, competition: +free pErk1/2 peptide 1000 nM
[13] = target: ERK1 (p44) inactive (GST tagged), human, Invitrogen PV 3312 (human) (UniProt P27361); assay: RPA standard curve, assay 1, LOD back-calculated from one-site fit
[14] = target: Erk1-BSA 2.7x peptide-protein conjugate (human; bovine); assay: as above
[15] = target: Histone H3-BSA 2.7x peptide-protein conjugate (bovine); assay: RPA, competition: +free Erk1 peptide 1000 nM
[16] = target: pErk1/2-BSA 2.7x peptide-protein conjugate (human; bovine); assay: RPA, competition: +free Erk1 peptide 1000 nM
[17] = target: ERK1 (p44) active (GST tagged), human, Invitrogen PV 3311 (human) (UniProt P27361); assay: RPA, competition: +free Erk1 peptide 1000 nM
[18] = target: ERK1 (p44) inactive (GST tagged), human, Invitrogen PV 3312 (human) (UniProt P27361); assay: RPA, competition: +free Erk1 peptide 1000 nM
[19] = target: pRb-BSA 1x peptide-protein conjugate (bovine); assay: RPA, competition: +free Erk1 peptide 1000 nM
pRb-BSA 1x peptide-protein conjugate (bovine), sequence (P02769 25-607 limits assumed): as above

[20] = target: Histone H3 recombinant protein, human, Upstate 14-494 (human) (UniProt P68431); assay: RPA, competition: +free Erk1 peptide 1000 nM
[21] = target: ERK2 (p42), human, Biosource PHO 0104 (human) (UniProt P28482); assay: RPA, competition: +free Erk1 peptide 1000 nM
[22] = target: pRb recombinant protein, human, Active Motif 31 128 (human) (UniProt P06400); assay: RPA, competition: +free Erk1 peptide 1000 nM
[23] = target: Histone H3 recombinant protein, calf, Roche 11 034 758 001 (calf) (UniProt P68432); assay: RPA, competition: +free Erk1 peptide 1000 nM
[24] = target: ERK1 (p44), human, Cell Signaling Technology 7416 (human) (UniProt P27361); assay: RPA, competition: +free Erk1 peptide 1000 nM
[25] = target: Erk1-BSA 2.7x peptide-protein conjugate (human; bovine); assay: RPA, competition: +free Erk1 peptide 1000 nM
[26] = target: ERK1 (p42) active (phospho), human, Active Motif 31 152 (human) (UniProt P27361); assay: RPA, competition: +free Erk1 peptide 1000 nM
[27] = target: Histone H3-BSA 2.7x peptide-protein conjugate (bovine); assay: RPA standard curve, assay 1, LOD back-calculated from one-site fit
[28] = target: Histone H3 recombinant protein, human, Upstate 14-494 (human) (UniProt P68431); assay: as above
[29] = target: Histone H3-BSA 2.7x peptide-protein conjugate (bovine); assay: RPA, competition: +free H3 peptide 10 nM
[30] = target: pErk1/2-BSA 2.7x peptide-protein conjugate (human; bovine); assay: RPA, competition: +free H3 peptide 10 nM
[31] = target: ERK1 (p44) inactive (GST tagged), human, Invitrogen PV 3312 (human) (UniProt P27361); assay: RPA, competition: +free H3 peptide 10 nM
[32] = target: Histone H3 recombinant protein, human, Upstate 14-494 (human) (UniProt P68431); assay: RPA, competition: +free H3 peptide 10 nM
[33] = target: ERK2 (p42), human, Biosource PHO 0104 (human) (UniProt P28482); assay: RPA, competition: +free H3 peptide 10 nM
[34] = target: pRb recombinant protein, human, Active Motif 31 128 (human) (UniProt P06400); assay: RPA, competition: +free H3 peptide 10 nM
[35] = target: ERK1 (p44), human, Cell Signaling Technology 7416 (human) (UniProt P27361); assay: RPA, competition: +free H3 peptide 10 nM
[36] = target: Erk1-BSA 2.7x peptide-protein conjugate (human; bovine); assay: RPA, competition: +free H3 peptide 10 nM
[37] = target: ERK1 (p42) active (phospho), human, Active Motif 31 152 (human) (UniProt P27361); assay: RPA, competition: +free H3 peptide 10 nM

pErk1/2-BSA 2.7x peptide-protein conjugate (human; bovine), sequence (P02769 25-607 limits assumed): as above

In the case of “p44/42 MAPK phospho (pERK1/2) Thr202/Tyr204 antibody, Cell Signaling Technology #9101”, the LOD [1] is reported as 0.028 nM, the signal intensity relative to the pErk1/2-BSA peptide standard [2] is reported as 25% and the signal relative to pErk1 protein (Invitrogen) [3] is reported as 3%. The signal relative to pErk1 protein (Invitrogen) [4] was 11%, the signal relative to pErk1 protein (Invitrogen) [5] was 12% and the maximum standard curve signal [6] was 0.1 RFI. It also gave a maximum standard curve signal [7] of 0.01 RFI, a maximum standard curve signal [8] of 0.01 RFI and a maximum standard curve signal [9] of 0.01 RFI. For the same substance, the maximum standard curve signal [10] was 0.01 RFI, the maximum standard curve signal [11] was 0.02 RFI and the maximum standard curve signal [12] was 0.01 RFI.
With “p44/42 MAPK (Erk1/2) antibody, Biosource 44-654G” the LOD [13] was 0.059 nM, the LOD [14] was 0.045 nM and the maximum standard curve signal [15] was 0.02 RFI. It also gave a maximum standard curve signal [16] of 0.01 RFI, a maximum standard curve signal [17] of 0.02 RFI and a maximum standard curve signal [18] of 0.02 RFI. For the same substance, the maximum standard curve signal [19] was 0.01 RFI, the maximum standard curve signal [20] was 0.01 RFI and the maximum standard curve signal [21] was 0.01 RFI. It also gave a maximum standard curve signal [22] of 0.01 RFI, a maximum standard curve signal [23] of 0.01 RFI and a maximum standard curve signal [24] of less than 0.01 RFI. The maximum standard curve signal [25] was 0.14 RFI and the maximum standard curve signal [26] was 0.01 RFI.
Work on Histone H3 antibody, Abcam ab1791 yielded an LOD [27] of 0.104 nM, an LOD [28] of 0.133 nM and a maximum standard curve signal [29] of 4.28 RFI. It also gave a maximum standard curve signal [30] of less than 0.01 RFI, a maximum standard curve signal [31] of less than 0.01 RFI and a maximum standard curve signal [32] of 7.04 RFI. The maximum standard curve signal [33] was less than 0.01 RFI, the maximum standard curve signal [34] was less than 0.01 RFI and the maximum standard curve signal [35] was less than 0.01 RFI. For the same substance, the maximum standard curve signal [36] was less than 0.01 RFI and the maximum standard curve signal [37] was less than 0.01 RFI.
